Data as given in US20220185876A1 (ATARGA, published 2022).
Where two headings read alike, the source gives them in different places.

T1: human FGF23 (human, UniProt Q9GZV9 25-251)
T1 construct: also called recombinant human FGF-23; Fibroblast Growth Factor 23
T1 sequence: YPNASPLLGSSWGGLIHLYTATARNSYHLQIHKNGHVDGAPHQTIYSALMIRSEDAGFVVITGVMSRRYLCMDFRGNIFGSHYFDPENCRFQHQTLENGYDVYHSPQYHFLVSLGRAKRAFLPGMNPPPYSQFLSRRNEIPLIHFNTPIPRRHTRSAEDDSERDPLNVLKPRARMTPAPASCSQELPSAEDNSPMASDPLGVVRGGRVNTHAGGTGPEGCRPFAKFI


Tests used:
human FGF23 [1] = target: T1, human FGF23; experiment: ELISA, binding to human FGF23 (A450 against log mAb concentration)
human FGF23 [2] = target: T1, human FGF23; experiment: cell-based or functional assay
human FGF23 [3] = target: T1, human FGF23; experiment: ELISA, binding to human FGF23 (A450 against log mAb concentration); remark: listed apart in the source
human FGF23 [4] = target: T1, human FGF23; experiment: cell-based or functional assay; remark: listed apart in the source

Binder	EC50 (human FGF23 [1]) [µg/mL]	IC50, neutralisation of recombinant human FGF23-stimulated proliferation of NIH-3T3 cells (fluorescence) (human FGF23 [2]) [µg/mL]	EC50 (human FGF23 [3]) [µg/mL]	IC50, neutralisation of recombinant human FGF23-stimulated proliferation of NIH-3T3 cells (fluorescence) (human FGF23 [4]) [µg/mL]
Exc23 (antibody, V domains shown, Monoclonal anti-FGF23 antibody) VH: EVQLVQSGAEVRKPGASVKVSCKASGYTFTNHYMHWVRQAPGQGLEWMGIINPISGSTSNAQKLQGRVTFTRDTSANTAYMELSGLIPEDTAIYYCARDIVDAFDFWGQGTLVTVSS VL: DIQMTQSPSSLSASVGDRVTITCKASQGISSALVWYQQKPGKAPKLLIYDASSLQTGVPSRFSGSGSGTDFTFTISSLQPEDIATYYCQQFNDYFSFGPGTKLEIK	0.0295			
ExC17 (antibody, V domains shown, Monoclonal anti-FGF23 antibody) VH: EVQLVQSGAEVRKPGASVKVSCKASGYTFTNHYMHWVRQAPGQGLEWMGIINPISGSTSNAQKLQGRVTFTRDTSANTAYMELSGLIPEDTAIYYCARDIVDAFDFWGQGTLVTVSS VL: DIQLTQSPSSLSASVGDRVTITCRASQGISSALVWYQQKPGQAPRLLIYDASSLQSGIPARFSGSGSGTDFTLTISSLEPEDFAVYYCQQFNDLFTFGQGTKLEIK		0.2	0.0181	
Exc23.5 (antibody, V domains shown, Monoclonal anti-FGF23 antibody) VH: EVQLVQSGAEVRKPGASVKVSCKASGYTFTNHYMHWVRQAPGQGLEWMGIINPISGSTSNAQKLQGRVTFTRDTSANTAYMELSGLIPEDTAIYYCARDIVDAFDFWGQGTLVTVSS VL: AIQMTQSPSSLSASVGDRVTITCKASQGISSALVWYQQKPGKAPKLLIYDASSLQTGVPSRFSGSGSGTDFTFTISSLQPEDIATYYCQQFNDYFSFGPGTKLEIK	0.0273			
Exc23.2 (antibody, V domains shown, Monoclonal anti-FGF23 antibody) VH: EVQLVQSGAEVRKPGASVKVSCKASGYTFTNHYMHWVRQAPGQGLEWMGIINPISGSTSNAQKLQGRVTFTRDTSANTAYMELSGLIPEDTAIYYCARDIVDAFDFWGQGTLVTVSS VL: DIQMTQSPSSLSASVGDRVTITCKASQGISSALVWYQQKPGKAPKLLIYDASSLQSGVPSRFSGSGSGTDFTFTISSLQPEDIATYYCQQFNDYFSFGPGTKLEIK	0.0262			
ExA11 (antibody, V domains shown, Monoclonal anti-FGF23 antibody) VH: QVQLVQSGAELKKPGASVKVSCKASGYTFTNHYMHWVRQAPGQGLEWMGIINPISGSTTYAQKFQGRVTMTRDTSSSTAYMDLSRLTSDDTAVYYCARDIVDAFDFWGQGTTVTVSS VL: AIQLTQSPSSLSASVGDRVTITCRASQGISSALVWYQQKPGQAPRLLIYDASSLESGIPARFSGSGSGTDFTLTISSLEPEDFAVYYCQQFNDYFTFGQGTKLEIK		0.411	0.0267	
ExA35 (antibody, V domains shown, Monoclonal anti-FGF23 antibody) VH: QVQLLESGAVLARPGTSVKISCKASGYTFTNHYMHWVKQRPGQGLEWIGIINPITGSSSNAQKFQGRVTITRDTSTSTVFMELSSLRSEDTAVYYCARDIVDAFDFWGQGTLVTVSS VL: AIQLTQSPSSLSASVGDRVTITCRASQGISSALVWYQQKPGQAPRLLIYDASSLESGIPARFSGSGSGTDFTLTISSLEPEDFAVYYCQQFNDYFTFGQGTKLEIK		0.355	0.0238	

More lines, now with the values ahead:

EC50 (human FGF23 [1]) [µg/mL]	IC50, neutralisation of recombinant human FGF23-stimulated proliferation of NIH-3T3 cells (fluorescence) (human FGF23 [2]) [µg/mL]	EC50 (human FGF23 [3]) [µg/mL]	IC50, neutralisation of recombinant human FGF23-stimulated proliferation of NIH-3T3 cells (fluorescence) (human FGF23 [4]) [µg/mL]	Binder
		0.0278		ExA43 (antibody, V domains shown, Monoclonal anti-FGF23 antibody) VH: EVQLVQSGAEVRKPGASVKVSCKASGYTFTNHYMHWVRQAPGQGLEWMGIINPISGSTSNAQKLQGRVTFTRDTSANTAYMELSGLIPEDTAIYYCAREIVDAFDFWGQGTLVTVSS VL: AIQLTQSPSSLSASVGDRVTITCRASQGISSALVWYQQKPGQAPRLLIYDASSLESGIPARFSGSGSGTDFTLTISSLEPEDFAVYYCQQFNDYFTFGQGTKLEIK
	0.5	0.0233		ExA60 (antibody, V domains shown, Monoclonal anti-FGF23 antibody) VH: EVQLVQSGAEVRKPGASVKVSCKASGYSFTNHYMHWVRQAPGQGLEWMGIINPNSGSTSNAQKLQGRVTFTRDTSANTAYMELSGLIPEDTAIYYCARDIVDAFDYWGQGTLVTVSS VL: AIQMTQSPSSLSASVGDRVTITCRASQGISSALVWYQQKPGKAPKLLIYDASSLESGVPSRFSGSGSGTDFTFTISSLQPEDIATYYCQQFNDYFTFGPGTKLEIK
0.0266				Exc23.4 (antibody, V domains shown, Monoclonal anti-FGF23 antibody) VH: EVQLVQSGAEVRKPGASVKVSCKASGYTFTNHYMHWVRQAPGQGLEWMGIINPISGSTSNAQKLQGRVTFTRDTSANTAYMELSGLIPEDTAIYYCARDIVDAFDFWGQGTLVTVSS VL: DIQMTQSPSSLSASVGDRVTITCRASQGISSALVWYQQKPGKAPKLLIYDASSLQTGVPSRFSGSGSGTDFTFTISSLQPEDIATYYCQQFNDYFSFGPGTKLEIK
	0.316	0.0248		ExA28 (antibody, V domains shown, Monoclonal anti-FGF23 antibody) VH: EVQLVQSGAEVRKPGASVKVSCKASGYTFTNHYMHWVRQAPGQGLEWMGIINPISGSTSNAQKLQGRVTFTRDTSANTAYMELSGLIPEDTAIYYCARDIVDAFDFWGQGTLVTVSS VL: AIQMTQSPSSLSASVGDRVTITCRASQGISSALVWYQQKPGKAPKLLIYDASSLESGVPSRFSGSGSGTDFTFTISSLQPEDIATYYCQQFNDYFTFGPGTKLEIK
0.0332			1.63	Exc23.1 (antibody, V domains shown, Monoclonal anti-FGF23 antibody) VH: EVQLVQSGAEVRKPGASVKVSCKASGYTFTNHYMHWVRQAPGQGLEWMGIINPISGSTSNAQKLQGRVTFTRDTSANTAYMELSGLIPEDTAIYYCARDIVDAFDFWGQGTLVTVSS VL: DIQMTQSPSSLSASVGDRVTITCKASQGISSALVWYQQKPGKAPKLLIYDASSLETGVPSRFSGSGSGTDFTFTISSLQPEDIATYYCQQFNDYFSFGPGTKLEIK
0.0286			1.29	Exc23.3 (antibody, V domains shown, Monoclonal anti-FGF23 antibody) VH: EVQLVQSGAEVRKPGASVKVSCKASGYTFTNHYMHWVRQAPGQGLEWMGIINPISGSTSNAQKLQGRVTFTRDTSANTAYMELSGLIPEDTAIYYCARDIVDAFDFWGQGTLVTVSS VL: DIQMTQSPSSLSASVGDRVTITCKASQGISSALVWYQQKPGKAPKLLIYDASSLQTGVPSRFSGSGSGTDFTFTISSLQPEDIATYYCQQFNDYFTFGPGTKLEIK
	0.199	0.0204		ExC50 (antibody, V domains shown, Monoclonal anti-FGF23 antibody) VH: QVQLLESGAVLARPGTSVKISCKASGYSFTNHYMHWVKQRPGQGLEWIGIINPITGSSSNAQKFQGRVTITRDTSTSTVFMELSSLRSEDTAVYYCARDLVDAFDFWGQGTLVTVSS VL: DIQLTQSPSSLSASVGDRVTITCRASQGISSALVWYQQKPGQAPRLLIYDASSLQSGIPARFSGSGSGTDFTLTISSLEPEDFAVYYCQQFNDYFTFGQGTKLEIK
